Read-outs that look alike come from different tables or passages of the source.
Legend:
[1] = biological target: T1, human plasma kallikrein (human pKal) (Homo sapiens, UniProt P03952); assay: Ki,app against human pKal by steady state enzyme kinetics (in vitro protease cleavage assay, Pro-Phe-Arg-aminomethylcoumarin substrate); type: biochemical
T1 construct: two disulfide linked polypeptides; a heavy chain of approximately 52 kDa and a catalytic domain of approximately 34 kDa; host or cells: human plasma
Text: The inhibition constant (Ki) provides a measure of inhibitor potency; it is the concentration of inhibitor required to reduce enzyme activity by half and is not dependent on enzyme or substrate concentrations. The apparent Ki (Ki,app) is obtained at different substrate concentrations by measuring the inhibitory effect of different concentrations of inhibitor (e.g., inhibitory binding protein) on the extent of the reaction (e.g., enzyme activity); fitting the change in pseudo-first order rate constant as a function of inhibitor concentration to the Morrison equation (Equation 1) yields an estimate of the apparent Ki value. The Ki is obtained from the y-intercept extracted from a linear regression analysis of a plot of Ki,app versus substrate concentration.
Where v=measured velocity; v0=velocity in the absence of inhibitor; Ki,app=apparent inhibition constant; I=total inhibitor concentration; and E=total enzyme concentration.
The sequence of human plasma kallikrein that was used in selections and subsequent screening of binding proteins is shown below (accession number NP_000883.2). The human plasma kallikrein (86 kDa) that was used was purified from human plasma and activated with factor XIIa by a commercial vendor. Factor XIIa activates prekallikrein by cleaving the polypeptide sequence at a single site (between Arg371-Ile372, cleavage site marked by “/” in the sequence below) to generate active plasma kallikrein, which then consists of two disulfide linked polypeptides; a heavy chain of approximately 52 kDa and a catalytic domain of approximately 34 kDa [Colman and Schmaier, (1997) “Contact System: A Vascular Biology Modulator With Anticoagulant, Profibrinolytic, Antiadhesive, and Proinflammatory Attributes” Blood, 90, 3819-3843]
These antibodies were produced as Fab fragments in small scale (˜20 μg) and tested for inhibition against human pKal in an in vitro protease cleavage assay using Pro-Phe-Arg-aminomethylcoumarin as the synthetic peptide substrate. […] Five antibodies were then expressed in 293T cells and purified by protein A sepharose chromatography. The antibodies were analyzed by SDS-PAGE to determine which of the inhibitory mutants are not cleaved by the host cell protease(s) (data not shown).

mouse pKal = biological target: T2, mouse pKal (Mus musculus, UniProt P26262); assay: Ki,app against mouse pKal; type: biochemical; settings: mouse; IgG; Table 14; read-out: < nM Ki, app against rodent pKal
T2 construct: active plasma kallikrein (pkal) has the single polypeptide chain cleaved at a single position
Experimental: (§1) Fourth, antibodies were tested for their ability to inhibit pKal from other species, besides human, where the amino acid sequence of pKal has been determined in order to identify amino acids that may account for the differences in inhibition.
Antibodies that inhibit the activity of pKal either bind near the active site and preclude substrate interactions (competitive inhibitors) or that bind away from the active site and induce allosteric changes in the structure of the active site (noncompetitive inhibitors).

rat pKal = biological target: T3, rat pKal (Rattus norvegicus, UniProt P14272); assay: Ki,app against rat pKal; type: biochemical; settings: IgG, Table 14, read-out: < nM Ki, app against rodent pKal
T3 construct: active plasma kallikrein (pkal) has the single polypeptide chain cleaved at a single position
Experimental: as §1

prekallikrein = prekallikrein (Homo sapiens, UniProt P03952); assay: Surface plasmon resonance (SPR) assay for binding to prekallikrein; settings: IgG; Table 14
Experimental: Antibodies that bound prekallikrein may be rendered inaccessible towards active plasma kallikrein inhibition and could substantially increase the in vivo dose required for efficacy. […] Specifically, human IgGs (X81-B01, M162-A04 (R84-H05); M160-G12 (R84-D02); and M142-H08) were captured on a CM5 chip using an anti-human Fc surface and 100 nM of plasma kallikrein or 100 nM or 500 nM prekallikrein. The prekallikrein was treated with aprotinin-sepharose to remove active plasma kallikrein.

[2] = tested on: fXIa, plasmin, and trypsin; assay: Specificity with respect to other serine proteases; type: biochemical; settings: IgG; Table 14
bradykinin generation = assay: Inhibition of bradykinin generation; type: biochemical; settings: IgG; Table 14
pKal [3] = biological target: T4, pKal (Homo sapiens, UniProt P03952); assay: Inhibition of pKal in presence of prekallikrein; type: biochemical; settings: IgG; Table 14
T4 construct: two disulfide linked polypeptides; a heavy chain of approximately 52 kDa and a catalytic domain of approximately 34 kDa; host or cells: human plasma

pKal [4] = biological target: T4, pKal; assay: Competition for binding with aprotinin; settings: IgG; Table 14
Text: The region of pKal bound by selected anti-pKal antibodies was investigated using several methods. First, competition assays were used to determine whether the antibodies competed for binding to pKal with known active site-directed inhibitors. Second, antibodies were grouped according to whether they were inhibitors or just binders to pKal. Third, epitopes were investigated using synthetic peptides and peptidic structures based on the sequence and 3-dimensional structure of pKal. These peptidic structures are called “CLIPS” (Chemically Linked Peptides on Scaffolds) and the testing was performed by a fee for service company called Pepscan.

pKal [5] = biological target: T4, pKal; assay: BIACORE SPR competition with EPI-KAL2 for binding pKal; settings: IgG captured on chip, pKal 100 nM, 1 μM EPI-KAL2
Experimental: (§2) FIG. 7A depicts the EPI-KAL2 competition for X81-B01 binding pKal. X81-B01 (IgG) was captured on an anti-human Fc fragment specific surface of a CM5 BIACORE® chip. pKal (100 nM) was flowed over the surface in the presence (lower sensorgram in the figure) or absence of 1 μM EPI-KAL2 (upper sensorgram in the figure).
as §2, with “7B” for “7A”, “X67-D03” for “X81-B01”, “Biacore” for “BIACORE®”
Using a BIACORE® SPR assay antibodies of interest were tested for competion with a known active site inhibitor of pKal. EPI-KAL2 is potent (Ki,app=0.1 nM) active site inhibitor of pKal and a Kunitz domain inhibitor based on the first domain of tissue factor pathway inhibitor (Markland (1996) Iterative optimization of high-affinity protease inhibitors using phage display. 2. Plasma kallikrein and thrombin, Biochemistry 35(24):8058-67). Kunitz domains are known active site inhibitors of serine proteases, such as pKal.
As shown in FIGS. 7A-7B, the antibodies X81-B01 and X67-D03 were competed for binding to pKal in the presence or EPI-KAL2.

[6] = tested on: pKal from different species; assay: Kallikrein activity in activated citrated plasma of different species; type: biochemical; settings: all the species except for pig
Text: (§3) All available sequence of pKal were obtained from public databases and aligned using ClustalW and regions were highlighted based on solvent accessibility, contact with an active site Kunitz inhibitor, and those peptides identified by CLIPS analysis (FIGS. 9A-9C). Citrated plasma from each of these species was obtained and activated using a commercially available prekallikrein activator (from Enzyme Research Laboratories) according to the instructions of the manufacturer. Kallikrein activity was then measured in each of the samples in the presence or absence of […]-B01.

pig pKal = assay: Kallikrein activity in activated citrated plasma, pig; type: biochemical
Text: as §3

frog pKal = assay: Kallikrein activity in activated citrated plasma, frog; type: biochemical
Text: as §3

[7] = biological target: T1, human plasma kallikrein (human pKal); assay: Ki,app against human pKal by steady state enzyme kinetics (in vitro protease cleavage assay, Pro-Phe-Arg-aminomethylcoumarin substrate); type: biochemical; settings: IgG

T1 sequence (P03952 391-638 limits assumed): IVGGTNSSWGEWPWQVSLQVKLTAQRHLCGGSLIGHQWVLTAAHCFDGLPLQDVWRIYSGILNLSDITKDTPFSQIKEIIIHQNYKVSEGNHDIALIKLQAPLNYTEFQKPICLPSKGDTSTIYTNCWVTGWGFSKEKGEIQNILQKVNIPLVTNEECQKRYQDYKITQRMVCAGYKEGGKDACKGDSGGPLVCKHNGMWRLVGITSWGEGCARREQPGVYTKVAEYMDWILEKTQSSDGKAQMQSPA
T1 sequence (P03952 20-390 partner limits assumed): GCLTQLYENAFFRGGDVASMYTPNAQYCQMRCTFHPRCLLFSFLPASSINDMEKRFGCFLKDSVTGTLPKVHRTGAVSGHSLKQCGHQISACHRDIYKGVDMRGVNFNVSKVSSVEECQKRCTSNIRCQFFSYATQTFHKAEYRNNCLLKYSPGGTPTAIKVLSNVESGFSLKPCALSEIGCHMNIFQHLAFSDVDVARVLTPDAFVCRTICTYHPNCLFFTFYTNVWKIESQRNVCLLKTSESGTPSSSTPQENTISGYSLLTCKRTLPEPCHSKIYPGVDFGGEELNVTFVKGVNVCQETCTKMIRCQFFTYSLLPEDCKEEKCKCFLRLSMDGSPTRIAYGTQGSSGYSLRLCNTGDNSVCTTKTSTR
T4 sequence (P03952 391-638 limits assumed): as the sequence (P03952 391-638 limits assumed) above
T4 sequence (P03952 20-390 partner limits assumed): as the sequence (P03952 20-390 partner limits assumed) above
Sequence of prekallikrein (P03952 20-638): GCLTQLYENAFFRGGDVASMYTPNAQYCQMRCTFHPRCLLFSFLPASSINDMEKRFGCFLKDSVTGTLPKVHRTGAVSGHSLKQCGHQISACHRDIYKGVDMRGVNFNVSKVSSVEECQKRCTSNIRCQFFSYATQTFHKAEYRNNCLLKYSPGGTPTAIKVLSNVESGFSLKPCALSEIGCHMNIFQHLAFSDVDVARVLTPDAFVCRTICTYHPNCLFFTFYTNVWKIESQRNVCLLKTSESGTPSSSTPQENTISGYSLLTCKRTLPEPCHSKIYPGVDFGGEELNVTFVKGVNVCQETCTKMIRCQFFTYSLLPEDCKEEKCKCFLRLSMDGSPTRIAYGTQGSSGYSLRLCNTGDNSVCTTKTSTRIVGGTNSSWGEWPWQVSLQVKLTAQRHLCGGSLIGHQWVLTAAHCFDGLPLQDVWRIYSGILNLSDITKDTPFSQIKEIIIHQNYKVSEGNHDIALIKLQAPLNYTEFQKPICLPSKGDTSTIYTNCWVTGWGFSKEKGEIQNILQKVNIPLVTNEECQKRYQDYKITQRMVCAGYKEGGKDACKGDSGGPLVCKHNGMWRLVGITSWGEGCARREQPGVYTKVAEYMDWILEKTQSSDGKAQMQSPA
T3 sequence (P14272 391-638 limits assumed): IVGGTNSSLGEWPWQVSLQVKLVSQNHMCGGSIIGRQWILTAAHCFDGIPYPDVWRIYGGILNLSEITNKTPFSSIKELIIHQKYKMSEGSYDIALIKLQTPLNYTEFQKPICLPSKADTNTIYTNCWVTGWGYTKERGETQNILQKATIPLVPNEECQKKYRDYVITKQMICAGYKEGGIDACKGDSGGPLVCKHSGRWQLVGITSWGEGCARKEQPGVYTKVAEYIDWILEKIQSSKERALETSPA
T3 sequence (P14272 20-390 partner limits assumed): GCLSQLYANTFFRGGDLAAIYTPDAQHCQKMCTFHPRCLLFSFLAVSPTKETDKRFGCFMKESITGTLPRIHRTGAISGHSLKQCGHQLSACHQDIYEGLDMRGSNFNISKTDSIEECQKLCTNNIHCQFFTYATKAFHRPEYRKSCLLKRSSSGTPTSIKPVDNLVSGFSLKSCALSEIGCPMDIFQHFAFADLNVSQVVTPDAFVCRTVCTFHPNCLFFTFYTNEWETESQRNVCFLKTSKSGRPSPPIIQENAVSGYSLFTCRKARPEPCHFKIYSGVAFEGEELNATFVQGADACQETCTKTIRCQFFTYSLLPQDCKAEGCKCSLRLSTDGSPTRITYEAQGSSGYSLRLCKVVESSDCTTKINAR
Sequence of pig pKal (as listed by the source): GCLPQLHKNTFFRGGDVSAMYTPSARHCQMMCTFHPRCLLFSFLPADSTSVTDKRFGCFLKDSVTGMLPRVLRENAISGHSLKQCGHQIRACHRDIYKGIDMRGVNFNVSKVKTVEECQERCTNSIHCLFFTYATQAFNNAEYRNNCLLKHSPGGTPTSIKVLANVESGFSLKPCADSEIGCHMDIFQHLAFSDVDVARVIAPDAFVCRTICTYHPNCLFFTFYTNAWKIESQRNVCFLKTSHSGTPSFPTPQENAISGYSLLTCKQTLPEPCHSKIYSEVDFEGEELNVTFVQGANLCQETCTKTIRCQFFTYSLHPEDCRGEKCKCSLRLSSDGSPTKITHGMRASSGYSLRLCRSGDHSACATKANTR
Sequence of pig pKal (as listed by the source): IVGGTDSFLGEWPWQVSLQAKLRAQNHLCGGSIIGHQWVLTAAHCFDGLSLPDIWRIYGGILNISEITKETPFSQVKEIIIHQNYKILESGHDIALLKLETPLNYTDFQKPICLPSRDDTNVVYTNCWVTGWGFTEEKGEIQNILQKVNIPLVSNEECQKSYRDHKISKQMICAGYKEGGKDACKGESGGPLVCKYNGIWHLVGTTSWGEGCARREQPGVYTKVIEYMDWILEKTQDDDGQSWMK
T2 sequence (P26262 391-638 limits assumed): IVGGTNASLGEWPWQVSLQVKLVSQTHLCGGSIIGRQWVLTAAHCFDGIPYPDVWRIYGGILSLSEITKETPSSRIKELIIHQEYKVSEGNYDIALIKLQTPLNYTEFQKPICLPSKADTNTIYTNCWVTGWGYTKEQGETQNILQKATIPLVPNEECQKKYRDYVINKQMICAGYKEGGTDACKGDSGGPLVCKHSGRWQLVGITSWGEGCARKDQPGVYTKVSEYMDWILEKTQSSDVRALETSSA
T2 sequence (P26262 20-390 partner limits assumed): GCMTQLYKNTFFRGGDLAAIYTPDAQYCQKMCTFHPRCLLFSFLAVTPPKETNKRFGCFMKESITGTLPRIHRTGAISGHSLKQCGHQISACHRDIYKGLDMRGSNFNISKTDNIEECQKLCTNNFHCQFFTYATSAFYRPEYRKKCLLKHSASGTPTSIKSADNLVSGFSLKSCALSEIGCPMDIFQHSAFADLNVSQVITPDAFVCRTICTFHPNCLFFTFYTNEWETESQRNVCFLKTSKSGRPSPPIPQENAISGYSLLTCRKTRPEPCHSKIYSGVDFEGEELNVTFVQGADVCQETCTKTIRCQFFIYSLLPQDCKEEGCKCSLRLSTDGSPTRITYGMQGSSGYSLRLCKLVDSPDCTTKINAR

- Ki ([1]; Table 6, read-out: Human pKal (Ki, app nM)): 0.2 nM
- Ki ([1]; Table 15, read-out: human Ki, app): 0.1 nM
- Ki (mouse pKal): 0.011 nM
- Ki (rat pKal): 0.14 nM
- Does not bind prekallikrein (prekallikrein): no
- Inhibits pKal in presence of prekallikrein (pKal [3]): yes
- Competition for binding with aprotinin (pKal [4]): yes
- competition for binding to pKal in the presence of EPI-KAL2 (pKal [5]): competed
- Ki ([7]; Table 11, read-out: Ki, app): 0.2 nM
- Ki ([7]; Table 14, read-out: < nM Ki, app against human pKal): 0.2 nM
- Ki ([7]; pKal, germlined and sequence optimized for CHO cell expression, read-out: Ki,app): ~0.2 nM
B1: X81-B01: codon optimized and germlined version of X63-G06 as a full length human IgG produced in CHO cells (antibody, chains of the INN, looked up, V domains shown)
VH: EVQLLESGGGLVQPGGSLRLSCAASGFTFSHYIMMWVRQAPGKGLEWVSGIYSSGGITVYADSVKGRFTISRDNSKNTLYLQMNSLRAEDTAVYYCAYRRIGVPRRDEFDIWGQGTMVTVSS
VL: DIQMTQSPSTLSASVGDRVTITCRASQSISSWLAWYQQKPGKAPKLLIYKASTLESGVPSRFSGSGSGTEFTLTISSLQPDDFATYYCQQYNTYWTFGQGTKVEIK
modifications: IgG
notes: codon optimized and germlined version of X63-G06 as a full length human IgG produced in CHO cells
- Specific inhibitor with respect to fXIa, plasmin, and trypsin [2]: yes
- Inhibits bradykinin generation (bradykinin generation): yes
- inhibition of pKal from different species [6]: inhibited
- inhibition of pig pKal (pig pKal): lack of inhibition
- inhibition of frog pKal (frog pKal): inhibited

Reference: patent publication US20100183625A1, “Treatment of Mucositis with Kallikrein Inhibitors” (Dyax Corp., priority 2009, published 2010)
